The data set concerns the target T1, SFVmac PR-RT WT (Simian foamy virus from macaques …, UniProt P23074 1-751).
T1 sequence: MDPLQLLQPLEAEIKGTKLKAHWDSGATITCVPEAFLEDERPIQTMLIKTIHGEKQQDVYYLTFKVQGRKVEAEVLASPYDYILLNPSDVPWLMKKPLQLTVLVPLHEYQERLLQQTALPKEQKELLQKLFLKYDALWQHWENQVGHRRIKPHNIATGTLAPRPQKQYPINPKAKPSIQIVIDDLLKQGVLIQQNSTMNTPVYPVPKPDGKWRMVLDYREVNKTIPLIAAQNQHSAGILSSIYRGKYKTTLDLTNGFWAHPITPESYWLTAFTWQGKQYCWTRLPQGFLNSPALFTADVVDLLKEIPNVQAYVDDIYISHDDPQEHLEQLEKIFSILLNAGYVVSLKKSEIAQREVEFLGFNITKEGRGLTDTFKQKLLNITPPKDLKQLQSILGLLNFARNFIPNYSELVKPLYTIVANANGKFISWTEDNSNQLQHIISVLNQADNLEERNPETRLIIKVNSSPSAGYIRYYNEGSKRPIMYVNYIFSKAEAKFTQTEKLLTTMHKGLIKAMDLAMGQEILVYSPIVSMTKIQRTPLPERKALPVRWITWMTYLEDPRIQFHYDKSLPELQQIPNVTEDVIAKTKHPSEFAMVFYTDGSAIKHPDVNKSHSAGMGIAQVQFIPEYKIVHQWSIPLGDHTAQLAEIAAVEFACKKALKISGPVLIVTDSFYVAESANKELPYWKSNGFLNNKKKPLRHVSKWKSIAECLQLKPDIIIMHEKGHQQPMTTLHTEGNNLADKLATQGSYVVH
Put plainly: fluorescence anisotropy; Fluorescence equilibrium titration, 5 nM DNA, 25 C; buffer, salt and pH not given in the material (refs 14, 43). The conditions noted are these: protein: recombinant; label: 5' DY647 on template (S6); 24 bp; template 5' overhang 5 nt and 3' overhang 11 nt. For orientation: In fluorescence polarisation assays a small probe gives low polarisation when free and higher when bound to something large.

From publication PMC4359774, “AZT resistance alters enzymatic properties and creates an ATP-binding site in SFVmac reverse transcriptase” come the findings set out here.

B1: 24/40-mer DNA/DNA primer/template (dsDNA)
DNA 1: CTAATTCCGCTTTCCCCTCTCCTGGTGATCCTTTCCATCC
DNA 2: ATCACCAGGAGAGGGGAAAGCGGA
What is called Kd is the concentration at which binding is half-saturated. Consider B1, for which the Kd came out at 9.6 ± 0.7 nM.
